Tests used:
[1] = substrate: CC(=O)N[C@@H](C)C(=O)NCC(=O)N[C@@H](CCCNC(=N)N)C(=O)N[C@@H](CCCNC(=N)N)C(=O)N[C@@H](Cc1ccc(O)cc1)C(=O)N[C@@H](CO)C(=O)N[C@@H](CC(C)C)C(=O)N[C@@H](CSCc1ccc2c(S(=O)(=O)N(C)C)ccc(O)c2n1)C(=O)N[C@H](C)C(=O)N[C@@H](C)C(N)=O; experiment: (§1) Ratio of Kcat to Km for Aurora A
[2] = substrate: CC(=O)N[C@@H](C)C(=O)N[C@@H](CC(C)C)C(=O)N[C@@H](CCCNC(=N)N)C(=O)N[C@@H](CCCNC(=N)N)C(=O)N[C@@H](C)C(=O)N[C@@H](CO)C(=O)N[C@@H](CC(C)C)C(=O)N[C@@H](CSCc1ccc2c(S(=O)(=O)N(C)C)ccc(O)c2n1)C(=O)N[C@@H](C)C(=O)N[C@@H](C)C(N)=O; experiment: as §1
[3] = substrate: CC(=O)N[C@@H](C)C(=O)N[C@@H](CC(C)C)C(=O)N[C@@H](CCCNC(=N)N)C(=O)N[C@@H](CCCNC(=N)N)C(=O)N[C@@H](Cc1ccccc1)C(=O)N[C@@H](CO)C(=O)N[C@@H](CC(C)C)C(=O)N[C@@H](CSCc1ccc2c(S(=O)(=O)N(C)C)ccc(O)c2n1)C(=O)NCC(=O)N[C@@H](C)C(N)=O; experiment: as §1
[4] = substrate: CC(=O)N[C@@H](C)C(=O)N[C@@H](CC(C)C)C(=O)N[C@@H](CCCNC(=N)N)C(=O)N[C@@H](CCCNC(=N)N)C(=O)N[C@@H](Cc1ccccc1)C(=O)N[C@@H](CO)C(=O)N[C@@H](CC(C)C)C(=O)N[C@@H](CSCc1ccc2c(S(=O)(=O)N(C)C)ccc(O)c2n1)C(=O)N[C@@H](C)C(=O)N[C@@H](C)C(N)=O; experiment: as §1
[5] = substrate: CC(=O)N[C@@H](C)C(=O)NCC(=O)N[C@@H](CCCNC(=N)N)C(=O)N[C@@H](CCCNC(=N)N)C(=O)N[C@@H](Cc1ccc(O)cc1)C(=O)N[C@@H](CO)C(=O)N[C@@H](CC(C)C)C(=O)N[C@@H](CSCc1ccc2c(S(=O)(=O)N(C)C)ccc(O)c2n1)C(=O)N[C@H](C)C(=O)N[C@@H](C)C(N)=O; experiment: (§2) Activity of Aurora A
[6] = substrate: CC(=O)N[C@@H](C)C(=O)N[C@@H](CC(C)C)C(=O)N[C@@H](CCCNC(=N)N)C(=O)N[C@@H](CCCNC(=N)N)C(=O)N[C@@H](C)C(=O)N[C@@H](CO)C(=O)N[C@@H](CC(C)C)C(=O)N[C@@H](CSCc1ccc2c(S(=O)(=O)N(C)C)ccc(O)c2n1)C(=O)N[C@@H](C)C(=O)N[C@@H](C)C(N)=O; experiment: as §2
[7] = substrate: CC(=O)N[C@@H](C)C(=O)N[C@@H](CC(C)C)C(=O)N[C@@H](CCCNC(=N)N)C(=O)N[C@@H](CCCNC(=N)N)C(=O)N[C@@H](Cc1ccccc1)C(=O)N[C@@H](CO)C(=O)N[C@@H](CC(C)C)C(=O)N[C@@H](CSCc1ccc2c(S(=O)(=O)N(C)C)ccc(O)c2n1)C(=O)NCC(=O)N[C@@H](C)C(N)=O; experiment: as §2
[8] = substrate: CC(=O)N[C@@H](C)C(=O)N[C@@H](CC(C)C)C(=O)N[C@@H](CCCNC(=N)N)C(=O)N[C@@H](CCCNC(=N)N)C(=O)N[C@@H](Cc1ccccc1)C(=O)N[C@@H](CO)C(=O)N[C@@H](CC(C)C)C(=O)N[C@@H](CSCc1ccc2c(S(=O)(=O)N(C)C)ccc(O)c2n1)C(=O)N[C@@H](C)C(=O)N[C@@H](C)C(N)=O; experiment: as §2

B1: Aurora kinase A (Homo sapiens), O14965 (protein)
chain: MDRSKENCISGPVKATAPVGGPKRVLVTQQFPCQNPLPVNSGQAQRVLCPSNSSQRIPLQAQKLVSSHKPVQNQKQKQLQATSVPHPVSRPLNNTQKSKQPLPSAPENNPEEELASKQKNEESKKRQWALEDFEIGRPLGKGKFGNVYLAREKQSKFILALKVLFKAQLEKAGVEHQLRREVEIQSHLRHPNILRLYGYFHDATRVYLILEYAPLGTVYRELQKLSKFDEQRTATYITELANALSYCHSKRVIHRDIKPENLLLGSAGELKIADFGWSVHAPSSRRTTLCGTLDYLPPEMIEGRMHDEKVDLWSLGVLCYEFLVGKPPFEANTYQETYKRISRVEFTFPDFVTEGARDLISRLLKHNPSQRPMLREVLEHPWITANSSKPSNCQNKESASKQS
[1]
  kcat/Km: 83300 M⁻¹ s⁻¹
[2]
  kcat/Km: 16700 M⁻¹ s⁻¹
[3]
  kcat/Km: 117000 M⁻¹ s⁻¹
[4]
  kcat/Km: 50000 M⁻¹ s⁻¹
[5]
  Km: 65 µM
  Vmax: 1.8 µmol/min/mg
[6]
  Km: 298 µM
  Vmax: 1.7 µmol/min/mg
[7]
  Km: 57.1 µM
  Vmax: 2.2 µmol/min/mg
[8]
  Km: 152 µM
  Vmax: 2.6 µmol/min/mg

Source: ChEMBL document CHEMBL1152693, “A rapid method for generation of selective Sox-based chemosensors of Ser/Thr kinases using combinatorial peptide libraries” (Bioorg Med Chem Lett, 2009)
